Experimental data taken from paper PMC8427864, “Optimizing operational parameters for the enzymatic production of furandicarboxylic acid building block” (Microbial Cell Factories, 2021).

Key:
[1] = system: T1, O=Cc1ccc(CO)o1; experiment: AmplexRed/HRP-coupled H2O2 assay, continuous steady state; format: biochemical, Methylovorus sp. MP688; details: 50 mM Tris/HCl, pH 7.0, air oxygen as co-substrate, 8BxHMFO (Methods print G356K)
T1 construct: synthetic gene in pET23b(+), E. coli BL21(DE3)pLysS, purified by two anion-exchange steps; FAD-containing; no tag mentioned

[2] = system: T2, O=Cc1ccc(C=O)o1; experiment: as above; format: biochemical, Methylovorus sp. MP688; details: 50 mM Tris/HCl, pH 7.0, air oxygen as co-substrate
T2 construct: synthetic gene in pET23b(+), E. coli BL21(DE3)pLysS, purified by two anion-exchange steps; FAD-containing; no tag mentioned
Excerpt: (§1) AmplexRed/HRP-coupled H2O2 assay, continuous steady state on HMFO (hydroxymethylfurfural oxidase) WT | The saturation profiles for all the variants discarded any inhibitory effect by these two substrates

[3] = system: T1, O=Cc1ccc(CO)o1; experiment: as above; format: biochemical, Methylovorus sp. MP688; details: 50 mM Tris/HCl, pH 7.0, air oxygen as co-substrate
Excerpt: as §1

[4] = molecular target: T3, HMFO (hydroxymethylfurfural oxidase) WT (Methylovorus sp. MP688, UniProt E4QP00); experiment: UV-visible spectra of folded enzyme and heat-released flavin; format: binding; details: flavin released at 95 °C, 5 min
T3 construct: gene MPQ_0130; synthetic gene in pET23b(+), E. coli BL21(DE3)pLysS, purified by two anion-exchange steps; FAD-containing; no tag mentioned
T3 sequence (E4QP00 1-531): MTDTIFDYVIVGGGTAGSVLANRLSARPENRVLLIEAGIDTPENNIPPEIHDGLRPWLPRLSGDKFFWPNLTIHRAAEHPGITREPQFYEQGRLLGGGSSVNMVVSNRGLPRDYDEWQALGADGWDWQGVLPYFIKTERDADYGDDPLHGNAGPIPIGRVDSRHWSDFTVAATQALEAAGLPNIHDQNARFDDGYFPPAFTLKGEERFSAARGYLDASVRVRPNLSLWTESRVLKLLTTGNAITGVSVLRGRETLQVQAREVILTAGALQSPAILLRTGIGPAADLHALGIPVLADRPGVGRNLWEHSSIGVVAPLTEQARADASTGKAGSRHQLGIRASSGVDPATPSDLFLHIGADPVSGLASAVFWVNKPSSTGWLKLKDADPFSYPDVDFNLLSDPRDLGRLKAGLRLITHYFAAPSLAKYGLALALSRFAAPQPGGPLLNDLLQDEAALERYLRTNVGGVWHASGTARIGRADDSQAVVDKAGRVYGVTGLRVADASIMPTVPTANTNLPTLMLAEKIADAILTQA

Compound | Km [1] [mM] | kcat [1] [min⁻¹] | Km [2] [mM] | kcat [2] [min⁻¹] | Km [3] [mM] | kcat [3] [min⁻¹] | UV-visible spectra of folded enzyme and heat-released flavin [4]
HMFO (hydroxymethylfurfural oxidase) WT (Methylovorus sp. MP688; A419Y/A435E/G356H/H74Y/I73V/T414K/V367R/W466F) | 17.1 ± 1.6 | 5.4 ± 0.2 |  |  |  |  | 
HMFO (hydroxymethylfurfural oxidase) WT (Methylovorus sp. MP688; W466F) |  |  | 1.8 ± 0.3 | 0.3 ± 0.01 | 6.4 ± 0.5 | 1.4 ± 0.03 | 
HMFO (hydroxymethylfurfural oxidase) WT (Methylovorus sp. MP688; V367R/W466F) |  |  | 4.9 ± 0.5 | 1.5 ± 0.04 | 23.1 ± 2.8 | 3.4 ± 0.2 | 
Cc1cc2nc3c(=O)[nH]c(=O)nc-3n(C[C@H](O)[C@H](O)[C@H](O)COP(=O)(O)OP(=O)(O)OC[C@H]3O[C@@H](n4cnc5c(N)ncnc54)[C@H](O)[C@@H]3O)c2cc1C [FAD] |  |  |  |  |  |  | The spectra of the folded enzymes and the free flavin, obtained by heat treatment
HMFO (hydroxymethylfurfural oxidase) WT (Methylovorus sp. MP688; V367R) |  |  | 1.1 ± 0.2 | 2.2 ± 0.1 | 4.2 ± 0.3 | 44.8 ± 1.0 | 
